{"source": "patent US20050208610", "key": {"[1]": {"tested_on": "Apolipoprotein CIII purified from plasma derived from multiple human donors", "sequence (chain, as listed by the source)": "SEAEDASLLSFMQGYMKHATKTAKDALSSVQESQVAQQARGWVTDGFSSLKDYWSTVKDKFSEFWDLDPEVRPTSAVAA"}, "[2]": {"tested_on": "apolipoprotein CIII fragment corresponding to amino acids 41-79 (SEQ ID NO:4), designated CR001", "sequence (chain, as listed by the source)": "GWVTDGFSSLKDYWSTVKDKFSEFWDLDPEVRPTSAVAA"}}}
{"substance": "factor Xa", "values": [{"measurement": "factor Xa activity when tested alone on the chromogenic substrate S-2765", "setting": "[1]", "result": "neither apoliproprotein CIII nor the apolipoprotein CIII fragment have any direct inhibitory effect on factor Xa activity"}, {"measurement": "factor Xa activity when tested alone on the chromogenic substrate S-2765", "setting": "[2]", "result": "neither apoliproprotein CIII nor the apolipoprotein CIII fragment have any direct inhibitory effect on factor Xa activity"}]}
